Laboratory results reported in patent US10196442B2, “Methods of inhibiting growth of a colon cancer tumor in a subject by administering monoclonal antibodies to G protein-coupled receptor 49 (GPR49)” (Bionomics Inc., priority 2011, dated 2019).

Experiments:
[1] = test system: NIH 3T3 fibroblast cells stably transfected with GPR49; assay: Cell Titer Glo proliferation of GPR49-3T3 cells; format: cell-based
GPR49-Fc = target: T1, GPR49-Fc (Homo sapiens, UniProt O75473); assay: Solution affinity surface plasmon resonance of RSPO-1 on GPR49-Fc; format: binding; settings: solution affinity SPR
T1 construct: FLAG (C)
Protocol: Methods: Binding of RSPO to GPR49 was analyzed using solution affinity surface plasmon resonance (Day E S, et al. Biochemistry. 2005 Feb. 15; 44(6):1919-31). The method utilizes conditions of so-called “mass-transport-limited” binding, in which the initial rate of ligand binding (protein binding to the senor chip) is proportional to the concentration of ligand in solution (BIApplications Handbook (1994) Chapter 6: Concentration measurement, pp 6-1-6-10, Pharmacia Biosensor AB). Under these conditions, binding of the soluble analyte (protein flowing over chip surface) to the immobilized protein on the chip is fast compared to the diffusion of the analyte into the dextran matrix on the chip surface. Therefore, the diffusion properties of the analyte and the concentration of analyte in solution flowing over the chip surface determine the rate at which analyte binds to the chip. In this experiment, the concentration of free RSPO-1 in solution is determined by the initial rate of binding to a CMS Biacore chip containing immobilized GPR49-Fc. Into these RSPO-1 solutions were titrated the competing GPR49-Fc.

T1 sequence (O75473 with tags, fused parts or gaps): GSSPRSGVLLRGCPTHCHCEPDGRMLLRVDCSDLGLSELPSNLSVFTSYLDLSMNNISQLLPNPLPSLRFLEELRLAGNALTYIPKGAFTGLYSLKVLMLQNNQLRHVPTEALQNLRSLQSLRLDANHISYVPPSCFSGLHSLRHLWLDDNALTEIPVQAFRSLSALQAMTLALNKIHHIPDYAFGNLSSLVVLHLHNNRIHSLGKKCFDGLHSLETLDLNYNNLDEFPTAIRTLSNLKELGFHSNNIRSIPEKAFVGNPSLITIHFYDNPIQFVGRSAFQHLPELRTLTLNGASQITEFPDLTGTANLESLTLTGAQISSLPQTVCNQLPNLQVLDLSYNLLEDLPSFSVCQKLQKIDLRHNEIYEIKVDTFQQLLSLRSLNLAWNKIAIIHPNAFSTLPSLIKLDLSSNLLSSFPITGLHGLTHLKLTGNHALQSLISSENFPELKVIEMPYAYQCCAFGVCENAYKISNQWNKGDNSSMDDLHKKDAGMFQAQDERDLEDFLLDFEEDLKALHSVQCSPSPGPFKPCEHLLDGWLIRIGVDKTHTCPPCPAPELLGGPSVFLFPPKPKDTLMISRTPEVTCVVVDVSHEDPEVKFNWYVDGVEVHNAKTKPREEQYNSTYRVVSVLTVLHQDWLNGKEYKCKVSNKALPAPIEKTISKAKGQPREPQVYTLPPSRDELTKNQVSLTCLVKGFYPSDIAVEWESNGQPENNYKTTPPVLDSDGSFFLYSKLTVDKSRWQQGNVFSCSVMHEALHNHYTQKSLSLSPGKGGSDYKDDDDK

B1: R-spondin 1: R-spondin family ligand purchased from R& D systems (protein, UniProt Q2MKA7 21-263, looked up)
R-spondin-1: SRGIKGKRQRRISAEGSQACAKGCELCSEVNGCLKCSPKLFILLERNDIRQVGVCLPSCPPGYFDARNPDMNKCIKCKIEHCEACFSHNFCTKCKEGLYLHKGRCYPACPEGSSAANGTMECSSPAQCEMSEWSPWGPCSKKQQLCGFRRGSEERTRRVLHAPVGDHAACSDTKETRRCTVRRVPCPEGQKRRKGGQGRRENANRNLARKESKEAGAGSRRRKGQQQQQQQGTVGPLTSAGPA
[1]; GPR49-3T3 clone 28, compared to Stanniocalcin
  increase in proliferation: 4 fold
[1]; GPR49-3T3 clone 50, 2 days, serum free, compared to Stanniocalcin
  increase in cell proliferation: 25-40%
GPR49-Fc
  binding profile to GPR49-Fc: bi-phasic binding profile
